Patent US20250282892A1 (BIOMUNEX PHARMACEUTICALS, published 2025)
Blank lines part the entries; values can stand above or below the binder they belong to.

Key:
[1] = biological target: T1, HER3 protein expressed on the cell surface of SW-1990 cells (UniProt P21860 20-1342, limits assumed); experiment: flow cytometry on SW-1990 cells (FIG. 10)
T1 construct: whole, on cells; SW-1990 cells carry HER3 and EGFR together; the flow cytometry signal is not split between them

[2] = biological target: T2, EGFR protein expressed on the cell surface of SW-1990 cells (UniProt P00533 25-1210, limits assumed); experiment: flow cytometry on SW-1990 cells (FIG. 10)
T2 construct: whole, on cells; SW-1990 cells carry HER3 and EGFR together; the flow cytometry signal is not split between them

EGFR His tag = biological target: T3, EGFR His tag (UniProt P00533 25-645); experiment: direct ELISA, His-tagged antigen coated, anti-human Fc-HRP detection
T3 construct: Recombinant His-tagged antigen; not shown: His tag

HER3 His tag = biological target: T4, HER3 His tag (UniProt P21860 20-643); experiment: as above
T4 construct: Recombinant His-tagged antigen; not shown: His tag

binding result [1]: binds
binding result [2]: binds
B1: BMX003-010 (humanized Patri-Cetu-Fc) (bispecific antibody, human IgG1, kappa)
heavy: not shown
light 1: not shown
light 2: EIVLTQSPDFQSVTPKEKVTITCRASQSIGTNIHWYQQKPDQSPKLLIKYASESISGVPSRFSGSGSGTDFTLTINSLEAEDAATYYCQQNNNWPTTFGAGTKLEIKRTVAAPSVFIFPPSDEQLKSGTASVTCLLNNFYPREAKVQWKVDNALQSGNSQESVTEQDSKDSTYSLVSTLTLSKADYEKHKVYACEVTHQGLSSPVTKSFNRGEC

binding result [1]: binds
binding result [2]: binds
B2: BMX003-011 (humanized Patri-Cetu-Fc modified) (bispecific antibody, human IgG1, kappa)
heavy: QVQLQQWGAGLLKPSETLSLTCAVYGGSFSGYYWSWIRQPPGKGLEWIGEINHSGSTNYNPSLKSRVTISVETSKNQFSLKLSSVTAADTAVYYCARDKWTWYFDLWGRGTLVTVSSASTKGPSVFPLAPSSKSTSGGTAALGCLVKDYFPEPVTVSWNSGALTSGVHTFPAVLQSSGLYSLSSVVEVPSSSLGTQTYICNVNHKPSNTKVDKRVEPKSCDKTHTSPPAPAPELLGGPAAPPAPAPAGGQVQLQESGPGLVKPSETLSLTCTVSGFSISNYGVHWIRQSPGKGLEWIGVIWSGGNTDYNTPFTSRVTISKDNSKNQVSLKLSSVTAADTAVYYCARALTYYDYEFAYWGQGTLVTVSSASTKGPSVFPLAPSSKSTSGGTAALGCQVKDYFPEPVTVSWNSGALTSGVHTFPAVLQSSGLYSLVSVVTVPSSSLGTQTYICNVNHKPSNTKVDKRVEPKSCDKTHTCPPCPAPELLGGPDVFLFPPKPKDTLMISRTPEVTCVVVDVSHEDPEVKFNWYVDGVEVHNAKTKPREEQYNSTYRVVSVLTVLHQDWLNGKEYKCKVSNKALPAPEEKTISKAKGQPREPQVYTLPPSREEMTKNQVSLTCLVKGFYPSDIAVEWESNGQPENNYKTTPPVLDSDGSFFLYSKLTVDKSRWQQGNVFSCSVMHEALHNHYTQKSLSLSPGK
light 1: not shown
light 2: B1 light 2
notes: Identical to BMX003-010 except for 2 mutations in the Fc domain (S239D and I332E, printed '1332E')

EC50 (EGFR His tag): 0.09 nM
B3: Matuzumab (antibody, V domains shown)
VH: QVQLVQSGAEVKKPGASVKVSCKASGYTFTSHWMHWVRQAPGQGLEWIGEFNPSNGRTNYNEKFKSKATMTVDTSTNTAYMELSSLRSEDTAVYYCASRDYDYAGRYFDYWGQGTLVTVSS
VL: DIQMTQSPSSLSASVGDRVTITCSASSSVTYMYWYQQKPGKAPKLLIYDTSNLASGVPSRFSGSGSGTDYTFTISSLQPEDIATYYCQQWSSHIFTFGQGTKVEIK
notes: Parental monoclonal antibody used as positive control; also called EMD72000; parental antibody (anti-EGFR)

EC50 (EGFR His tag): 0.39 nM
EC50 (HER3 His tag): 0.16 nM
B4: Patri-Matu-Fc (bispecific antibody, human IgG1, kappa)
heavy: not shown
light 1: not shown
light 2: DIQMTQSPSSLSASVGDRVTITCSASSSVTYMYWYQQKPGKAPKLLIYDTSNLASGVPSRFSGSGSGTDYTFTISSLQPEDIATYYCQQWSSHIFTFGQGTKVEIKRTVAAPSVFIFPPSDEQLKSGTASVTCLLNNFYPREAKVQWKVDNALQSGNSQESVTEQDSKDSTYSLVSTLTLSKADYEKHKVYACEVTHQGLSSPVTKSFNRGEC
notes: Tetravalent tandem Fab-Fc: external Fabs patritumab (anti-HER3), internal Fabs matuzumab (anti-EGFR); 2 heavy chains and 4 light chains; also called 3Patri-1Matu-Fc
